In US20220090089A1 (BROAD INSTITUTE, published 2022):

Biological target: T1, CD4 on primary human peripheral blood mononuclear cells (PBMCs) (human, UniProt P01730 26-458)
T1 construct: whole, on cells
Assay: flow cytometry of phage-stained human PBMCs
Procedure: Harvested cell lines or thawed PBMCs (see PHAGE-ATAC workflow for harvest and thawing protocol) were resuspended in FC buffer (see above) and incubated with respective phage nanobodies for 20 min on a rotator at 4° C. Cells were centrifuged and washed with cold FC buffer twice to remove unbound phages (centrifugation steps all were 350 g, 4 min, 4° C.). […] Cells were incubated for 10 min on ice, washed twice in FC buffer and resuspended in Sytox Blue (Thermo Scientific) containing FC buffer for live/dead discrimination according to manufacturer's instructions. […] Stained cells were analyzed using a CytoFLEX LX Flow Cytometer (Beckman Coulter) at the Broad Institute Flow Cytometry Facility. Flow cytometry data were analyzed using FlowJo software v.10.6.1.

B1: PAC-tagged anti-CD4 nanobody-displaying M13 phage (phagemid pDXinit-CD4Nb-PAC) (VHH)
VHH: EVQLVESGGGSVQPGGSLTLSCGTSGRTFNVMGWFRQAPGKEREFVAAVRWSSTGIYYTQYADSVKSRFTISRDNAKNTVYLEMNSLKPEDTAVYYCAADTYNSNPARWDGYDFWGQGTQVTVSS
notes: also called anti-CD4 pNb; anti-CD4 phage nanobody; not shown: M13 phage coat protein p3, from phagemid pDXinit; 12-amino acid PAC-tag
binding result: binds
